Assay results published in patent publication US20220074941A1, “HSP90 COMBINATION THERAPY” (Sloan-Kettering Institute for Cancer Research, priority 2011, published 2022).

What was measured:
[1] = tested on: Hsp90 complexes in Mia-PaCa-2 cell extract; test: Nano-LC-MS/MS of PU-beads pull-downs; format: binding, human; details: protein identified in PU-beads pull-down of Mia-PaCa-2 cell extract; QSTAR-Elite QTof MS
In short: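 They came from PU-bead pull-downs of pre-cleared lysates (control beads, overnight, 4 °C), eluted by boiling in 2% SDS, gel-separated and run by data-dependent nano-ESI QTof MS/MS.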

[2] = tested on: Hsp90 complexes in K562 cell extract; test: Nano-LC-MS/MS of PU-beads pull-downs; format: binding; details: protein identified in PU-beads pull-down of K562 cell extract, QSTAR-Elite QTof MS
In short: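 Proteins were identified by data-dependent nano LC-MS/MS (QTof, ESI) and Mascot searching (p<0.05), then reported as spectral counts and coverage via Scaffold. Inputs were PU-bead versus control-bead pull-downs from lysate pre-cleared with control beads overnight at 4 °C, eluted by boiling in 2% SDS.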

| Molecule | Number of Assigned Spectra, Mia-Paca 2 [1] | Number of Assigned Spectra, K562 Prep 1 [2] | Number of Assigned Spectra, K562 Prep 2 [2] |
| --- | --- | --- | --- |
| ZBED1 (protein, UniProt O96006 1-694, looked up) E3 SUMO-protein ligase ZBED1: MENKSLESSQTDLKLVAHPRAKSKVWKYFGFDTNAEGCILQWKKIYCRICMAQIAYSGNTSNLSYHLEKNHPEEFCEFVKSNTEQMREAFATAFSKLKPESSQQPGQDALAVKAGHGYDSKKQQELTAAVLGLICEGLYPASIVDEPTFKVLLKTADPRYELPSRKYISTKAIPEKYGAVREVILKELAEATWCGISTDMWRSENQNRAYVTLAAHFLGLGAPNCLSMGSRCLKTFEVPEENTAETITRVLYEVFIEWGISAKVFGATTNYGKDIVKACSLLDVAVHMPCLGHTFNAGIQQAFQLPKLGALLSRCRKLVEYFQQSAVAMYMLYEKQKQQNVAHCMLVSNRVSWWGSTLAMLQRLKEQQFVIAGVLVEDSNNHHLMLEASEWATIEGLVELLQPFKQVAEMLSASRYPTISMVKPLLHMLLNTTLNIKETDSKELSMAKEVIAKELSKTYQETPEIDMFLNVATFLDPRYKRLPFLSAFERQQVENRVVEEAKGLLDKVKDGGYRPAEDKIFPVPEEPPVKKLMRTSTPPPASVINNMLAEIFCQTGGVEDQEEWHAQVVEELSNFKSQKVLGLNEDPLKWWSDRLALFPLLPKVLQKYWCVTATRVAPERLFGSAANVVSAKRNRLAPAHVDEQVFLYENARSGAEAEPEDQDEGEWGLDQEQVFSLGDGVSGGFFGIRDSSFL | 0 | 2 | 0 |
| MALT1 (protein, UniProt Q9UDY8 2-824, looked up) Mucosa-associated lymphoid …: SLLGDPLQALPPSAAPTGPLLAPPAGATLNRLREPLLRRLSELLDQAPEGRGWRRLAELAGSRGRLRLSCLDLEQCSLKVLEPEGSPSLCLLKLMGEKGCTVTELSDFLQAMEHTEVLQLLSPPGIKITVNPESKAVLAGQFVKLCCRATGHPFVQYQWFKMNKEIPNGNTSELIFNAVHVKDAGFYVCRVNNNFTFEFSQWSQLDVCDIPESFQRSVDGVSESKLQICVEPTSQKLMPGSTLVLQCVAVGSPIPHYQWFKNELPLTHETKKLYMVPYVDLEHQGTYWCHVYNDRDSQDSKKVEIIIGRTDEAVECTEDELNNLGHPDNKEQTTDQPLAKDKVALLIGNMNYREHPKLKAPLVDVYELTNLLRQLDFKVVSLLDLTEYEMRNAVDEFLLLLDKGVYGLLYYAGHGYENFGNSFMVPVDAPNPYRSENCLCVQNILKLMQEKETGLNVFLLDMCRKRNDYDDTIPILDALKVTANIVFGYATCQGAEAFEIQHSGLANGIFMKFLKDRLLEDKKITVLLDEVAEDMGKCHLTKGKQALEIRSSLSEKRALTDPIQGTEYSAESLVRNLQWAKAHELPESMCLKFDCGVQIQLGFAAEFSNVMIIYTSIVYKPPEIIMCDAYVTDFPLDLDIDPKDANKGTPEETGSYLVSKDLPKHCLYTRLSSLQKLKEHLVFTVCLSYQYSGLEDTVEDKQEVNVGKPLIAKLDMHRGLGRKTCFQTCLMSNGPYQSSAATSGGAGHYHSLQDPFHGVYHSHPGNPSNVTPADSCHCSRTPDAFISSFAHHASCHFSRSNVPVETTDEIPFSFSDRLRISEK | 2 | 0 | 0 |
| PRCC (protein, UniProt Q92733 1-491, looked up) Proline-rich protein PRCC: MSLVAYASSDESEPDEAEPEPEEEEAVAPTSGPALGGLFASLPAPKGPALLPPPPQMLAPAFPPPLLLPPPTGDPRLQPPPPLPFGLGGFPPPPGVSPAEAAGVGEGLGLGLPSPRGPGLNLPPPIGGAGPPLGLPKPKKRKEPVKIAAPELHKGDSDSEEDEPTKKKTILQGSSEGTGLSALLPQPKNLTVKETNRLLLPHAFSRKPSDGSPDTKPSRLASKTKTSSLAPVVGTTTTTPSPSAIKAAAKSAALQVTKQITQEEDDSDEEVAPENFFSLPEKAEPPGVEPYPYPIPTVPEELPPGTEPEPAFQDDAANAPLEFKMAAGSSGAPWMPKPGDDYSYNQFSTYGDANAAGAYYQDYYSGGYYPAQDPALVPPQEIAPDASFIDDEAFKRLQGKRNRGREEINFVEIKGDDQLSGAQQWMTKSLTEEKTMKSFSKKKGEQPTGQQRRKHQITYLIHQAKERELELKNTWSENKLSRRQTQAKYGF | 0 | 2 | 0 |
| PSD4 (protein, UniProt Q8NDX1 1-1056, looked up) PH and SEC7 domain-containing …: MMGDYRLPDHPQPMEILNLYLGDSLEPHPGECPRETCSHEDPPEPFEEQTWATDPPEPTRQNVPPWGSGVELTHLGSWVHQDGLEPCQEQTRATDPPESTRQDAPPWGSGVELTHLGSPSAQREHRQNTASPGSPVNSHLPGSPKQNRSTSTQVVFWAGILQAQMCVLDLEEELEKTEGLKAGLKCCLPTPPVDLPGDTGLHSSPPENEDSGEDSSEPEGEGQAWLREGTPDSSPQWGAEEESMFFSNPLFLASPCSENSASGECFSWGASDSHAGVRTGPESPATLEPPLPEDTVLWELESEPDLGDGAAISGHCTPPFPVPIYKPHSICWASVAAAEGAPAAPPGHGESEGDRLGPAPSAAPCVDEALTWESGCVGSDLGPAAHPVQPWASLSPEGWQRGGPFWPQVTLNSQDRDEREGGHPQESLPCTLAPCPWRSPASSPEPSSPESESRGPGPRPSPASSQEGSPQLQHHSSGILPKWTLDASQSSLLETDGEQPSSLKKKEAGEAPKPGEEVKSEGTARPAETGDVQPDIHLTSAEHENLRTPMNSSWLPGSPMPQAQSPEEGQRPPAGDKLANGVRNNKVAWNLASRLYRLEGFRKSEVAAYLQKNNDFSRAVAEEYLSFFQFGGQSLDRALRSFLQALVLSGETQERERILYQFSRRFHHCNPGIFPSVDSVHTLTCAIMLLNTDLHGQNIGKSMSCQEFITNLNGLRDGGNFPKELLKALYWSIRSEKLEWAVDEEDTARPEKAQPSLPAGKMSKPFLQLAQDPTVPTYKQGILARKMHQDADGKKTPWGKRGWKMFHTLLRGMVLYFLKQGEDHCLEGESLVGQMVDEPVGVHHSLATPATHYTKKPHVFQLRTADWRLYLFQAPTAKEMSSWIARINLAAATHSAPPFPAAVGSQRRFVRPILPVGPAQSSLEEQHRSHENCLDAAADDLLDLQRNLPERRGRGRELEEHRLRKEYLEYEKTRYETYVQLLVARLHCPSDALDLWEEQLGREAGGTREPKLSLKKSHSSPSLHQDEAPTTAKVKRNISERRTYRKIIPKRNRNQL | 0 | 2 | 0 |
| WASF2 (protein, UniProt Q9Y6W5 1-498, looked up) Actin-binding protein WASF2: MPLVTRNIEPRHLCRQTLPSVRSELECVTNITLANVIRQLGSLSKYAEDIFGELFTQANTFASRVSSLAERVDRLQVKVTQLDPKEEEVSLQGINTRKAFRSSTIQDQKLFDRNSLPVPVLETYNTCDTPPPLNNLTPYRDDGKEALKFYTDPSYFFDLWKEKMLQDTKDIMKEKRKHRKEKKDNPNRGNVNPRKIKTRKEEWEKMKMGQEFVESKEKLGTSGYPPTLVYQNGSIGCVENVDASSYPPPPQSDSASSPSPSFSEDNLPPPPAEFSYPVDNQRGSGLAGPKRSSVVSPSHPPPAPPLGSPPGPKPGFAPPPAPPPPPPPMIGIPPPPPPVGFGSPGTPPPPSPPSFPPHPDFAAPPPPPPPPAADYPTLPPPPLSQPTGGAPPPPPPPPPPGPPPPPFTGADGQPAIPPPLSDTTKPKSSLPAVSDARSDLLSAIRQGFQLRRVEEQREQEKRDVVGNDVATILSRRIAVEYSDSEDDSSEFDEDDWSD | 0 | 2 | 0 |
| CT45A5 (protein, UniProt P0DMU8 1-189, looked up) Cancer/testis antigen family …: MTDKTEKVAVDPETVFKRPRECDSPSYQKRQRMALLARKQGAGDSLIAGSAMSKEKKLMTGHAIPPSQLDSQIDDFTGFSKDGMMQKPGSNAPVGGNVTSSFSGDDLECRETASSPKSQREINADIKRKLVKELRCVGQKYEKIFEMLEGVQGPTAVRKRFFESIIKEAARCMRRDFVKHLKKKLKRMI | 0 | 2 | 0 |
